Assay results as given in the supplement of paper PMC6757056.
± gives the standard deviation of the averaged measurements.

B1: library; a variant is named by its letters at N, in order (parent)
chain: GCUGUCACCGGUGUAUUACCCUAGUGGUCGACCGGUCUGAUGAGUCUNNNNNNAGACGAAACAGC

Columns and labels:
hypoxanthine [1] = variants of: B1; test: normalized RNA/DNA level with ligand (relative to sTRSVctl = 100) (log10 (% of sTRSVctl)); ligand: hypoxanthine (xanthine aptamer); higher = less ribozyme self-cleavage, higher mRNA level; conditions: ligand concentration (+) RNA-Seq: 5 mM, HEK293T, reporter: mCherry (pCS4076), ligand present: yes
Procedure, shortened: (§1)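 For each 6-well well, 4 µg of library plasmid encoding mCherry-linked ribozyme switches, or eGFP-linked ones in some ligand experiments, was transfected into HEK293T. Any ligand was added 1 h before transfection, and RNA was extracted with EDTA 72 h after it, then reverse-transcribed, amplified, barcoded and sequenced. RNA level was obtained by dividing RNA reads by DNA reads, normalizing to a spiked-in non-cleaving sequence or to the top sequences, then scaling and log-transforming. The top set was 25 sequences, scaling was ×100 with log10, and ≥100 DNA reads were required.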

hypoxanthine [2] = variants of: B1; test: normalized RNA/DNA level without ligand (relative to sTRSVctl = 100) (log10 (% of sTRSVctl)); ligand: hypoxanthine (xanthine aptamer); higher = less ribozyme self-cleavage, higher mRNA level; conditions: HEK293T, reporter: mCherry (pCS4076), ligand present: no
Procedure, shortened: as §1

Row | Variant | normalized RNA/DNA level with ligand (log10) (hypoxanthine [1]) | normalized RNA/DNA level without ligand (log10) (hypoxanthine [2])
1 | CUUCAG | 1.92 ± 0.08 | 1.84 ± 0.07
2 | CUUCAA | 1.959 ± 0.013 | 1.82 ± 0.05
3 | GUUUAU | 1.96 ± 0.05 | 1.83 ± 0.042
4 | GUUUAC | 1.96 ± 0.04 | 1.88 ± 0.028
5 | CUUUAC | 1.92 ± 0.073 | 1.81 ± 0.052
6 | CUUUAA | 1.92 ± 0.049 | 1.78 ± 0.054
7 | UUUUAC | 1.93 ± 0.031 | 1.83 ± 0.031
8 | UUUUAA | 1.931 ± 0.0049 | 1.85 ± 0.056
9 | UUUUAG | 1.9 ± 0.03 | 1.76 ± 0.055
10 | GUUGAC | 1.917 ± 0.015 | 1.72 ± 0.057
11 | GUUGAA | 1.918 ± 0.016 | 1.744 ± 0.0083
12 | GUUAAG | 1.853 ± 0.0019 | 1.48 ± 0.027
13 | GUUAAA | 1.933 ± 0.0032 | 1.798 ± 0.0025
14 | UUUAAG | 1.915 ± 0.016 | 1.71 ± 0.043
15 | UUUAAA | 1.94 ± 0.034 | 1.76 ± 0.036
16 | AUGUUC | 1.94 ± 0.14 | 1.85 ± 0.034
17 | AUGUUA | 1.92 ± 0.026 | 1.761 ± 0.011
18 | GUUCCG | 1.94 ± 0.028 | 1.72 ± 0.048
19 | GUUCCC | 1.99 ± 0.021 | 1.92 ± 0.044
20 | GUUCCU | 1.99 ± 0.012 | 1.98 ± 0.056
21 | GUUCCA | 1.963 ± 0.017 | 1.9 ± 0.029
22 | UUUUGU | 1.94 ± 0.037 | 1.842 ± 0.011

Row | Variant | normalized RNA/DNA level with ligand (log10) (hypoxanthine [1]) | normalized RNA/DNA level without ligand (log10) (hypoxanthine [2])
23 | UUUUGC | 1.94 ± 0.048 | 1.889 ± 0.0056
24 | UUUUGG | 1.898 ± 0.0019 | 1.738 ± 0.007
25 | UUUGUU | 1.952 ± 0.018 | 1.87 ± 0.027
26 | UUUGUC | 2.0103 ± 0.0014 | 1.99 ± 0.036
27 | UUUGUA | 1.93 ± 0.024 | 1.87 ± 0.089
28 | GUUACA | 1.92 ± 0.031 | 1.8382 ± 0.0018
29 | AUUGUA | 1.89 ± 0.021 | 1.78 ± 0.022
30 | AUUGUU | 1.9265 ± 0.0005 | 1.8319 ± 0.00072
31 | AUUGUC | 1.952 ± 0.016 | 1.969 ± 0.015
32 | CUUGCG | 1.937 ± 0.0067 | 1.853 ± 0.004
33 | CUUGCC | 1.9562 ± 0.0012 | 1.884 ± 0.015
34 | AUUUGG | 1.81 ± 0.03 | 1.39 ± 0.12
35 | AUUAUG | 1.891 ± 0.0046 | 1.48 ± 0.043
36 | AUUAUC | 2.02 ± 0.021 | 1.97 ± 0.02
37 | UUUUCU | 1.99 ± 0.052 | 1.9 ± 0.02
38 | UUUUCA | 1.94 ± 0.056 | 1.901 ± 0.012
39 | UUUUCG | 1.923 ± 0.0085 | 1.79 ± 0.053
40 | UUGUGA | 1.985 ± 0.003 | 1.8 ± 0.062
41 | UUGUGC | 2.02 ± 0.024 | 1.99 ± 0.047
42 | UUGUGU | 1.97 ± 0.051 | 1.93 ± 0.043
43 | UUUAUG | 1.92 ± 0.027 | 1.772 ± 0.014
44 | UUUAUC | 1.97 ± 0.03 | 1.99 ± 0.021

Row | Variant | normalized RNA/DNA level with ligand (log10) (hypoxanthine [1]) | normalized RNA/DNA level without ligand (log10) (hypoxanthine [2])
45 | AUUUCU | 1.96 ± 0.052 | 1.917 ± 0.018
46 | AUUUCC | 1.9621 ± 0.0014 | 1.878 ± 0.0067
47 | AUUUCG | 1.901 ± 0.0068 | 1.568 ± 0.015
48 | AUUUCA | 1.87 ± 0.04 | 1.829 ± 0.017
49 | UUUGAU | 1.9 ± 0.052 | 1.7965 ± 0.0012
50 | UUUGAC | 1.927 ± 0.0075 | 1.84 ± 0.037
51 | UUUCGG | 1.964 ± 0.012 | 1.94 ± 0.072
52 | UUUCGA | 1.953 ± 0.013 | 1.915 ± 0.006
53 | UUUCGC | 1.95 ± 0.023 | 1.92 ± 0.047
54 | UUUCGU | 1.96 ± 0.0091 | 1.851 ± 0.0071
55 | UUGUCC | 1.99 ± 0.03 | 2.03 ± 0.067
56 | UUGUCA | 1.99 ± 0.037 | 1.946 ± 0.01
57 | UUGUCU | 1.99 ± 0.03 | 2.02 ± 0.083
58 | UUGUCG | 1.99 ± 0.025 | 1.947 ± 0.0075
59 | AUUCGA | 1.91 ± 0.042 | 1.738 ± 0.015
60 | AUUCGC | 1.96 ± 0.04 | 1.89 ± 0.023
61 | AUUCGU | 1.93 ± 0.0044 | 1.897 ± 0.018
62 | CUUCGC | 1.954 ± 0.0084 | 1.88 ± 0.034
63 | CUUCGU | 2.028 ± 0.012 | 1.9 ± 0.045
64 | GUUCAU | 1.908 ± 0.016 | 1.783 ± 0.012
65 | GUUCAG | 1.82 ± 0.054 | 1.55 ± 0.057
66 | GUUCAC | 1.96 ± 0.05 | 1.85 ± 0.023

Row | Variant | normalized RNA/DNA level with ligand (log10) (hypoxanthine [1]) | normalized RNA/DNA level without ligand (log10) (hypoxanthine [2])
67 | GUGUCU | 1.95 ± 0.04 | 1.85 ± 0.019
68 | GUGUCC | 1.97 ± 0.036 | 1.776 ± 0.0043
69 | GUGUCA | 1.94 ± 0.052 | 1.77 ± 0.043
70 | AUUGGC | 1.94 ± 0.03 | 1.836 ± 0.0094
71 | UUUAGA | 1.93 ± 0.054 | 1.75 ± 0.035
72 | CUUAAU | 1.9 ± 0.0027 | 1.76 ± 0.028
73 | CUUAAG | 1.93 ± 0.081 | 1.69 ± 0.018
74 | CUUAAA | 1.899 ± 0.0031 | 1.8 ± 0.036
75 | GUUUGU | 1.95 ± 0.03 | 1.885 ± 0.01
76 | GUUUGA | 1.97 ± 0.0084 | 1.75 ± 0.032
77 | GUUUGC | 1.922 ± 0.016 | 1.61 ± 0.062
78 | AUGUCA | 1.95 ± 0.08 | 1.741 ± 0.0086
79 | AUGUCC | 1.98 ± 0.11 | 1.884 ± 0.011
80 | AUGUCG | 1.863 ± 0.018 | 1.52 ± 0.036
81 | AUGUGC | 1.853 ± 0.018 | 1.667 ± 0.0026
82 | AUUUAG | 1.85 ± 0.033 | 1.55 ± 0.053
83 | AUUUAC | 1.927 ± 0.011 | 1.847 ± 0.0068
84 | AUUUAU | 1.9 ± 0.039 | 1.907 ± 0.019
85 | AUUAAC | 1.881 ± 0.0094 | 1.8077 ± 0.0004
86 | CUUCUA | 1.97 ± 0.051 | 1.85 ± 0.077
87 | CUUCUC | 2.041 ± 0.013 | 2.03 ± 0.059
88 | CUUCUG | 1.948 ± 0.013 | 1.91 ± 0.053

Row | Variant | normalized RNA/DNA level with ligand (log10) (hypoxanthine [1]) | normalized RNA/DNA level without ligand (log10) (hypoxanthine [2])
89 | CUUCUU | 2.01 ± 0.066 | 1.868 ± 0.0019
90 | CUUUGU | 1.93 ± 0.021 | 1.975 ± 0.013
91 | CUUUGA | 1.97 ± 0.035 | 1.88 ± 0.0019
92 | CUUUGC | 1.92 ± 0.026 | 1.88 ± 0.06
93 | CUUUGG | 1.88 ± 0.032 | 1.58 ± 0.043
94 | UUUCUC | 1.99 ± 0.064 | 1.963 ± 0.0086
95 | UUUCUG | 1.942 ± 0.009 | 1.77 ± 0.026
96 | UUUCUA | 1.91 ± 0.02 | 1.87 ± 0.048
97 | UUUCUU | 1.94 ± 0.036 | 1.95 ± 0.036
98 | CUUAGA | 1.984 ± 0.0081 | 1.852 ± 0.0069
99 | CUUAGC | 1.944 ± 0.011 | 1.87 ± 0.018
100 | CUUAGG | 1.94 ± 0.075 | 1.84 ± 0.053
101 | CUUAGU | 1.936 ± 0.016 | 1.906 ± 0.0051
102 | CUGUCU | 2.03 ± 0.079 | 1.89 ± 0.077
103 | CUGUCG | 1.98 ± 0.027 | 1.84 ± 0.032
104 | CUGUCC | 2.01 ± 0.024 | 1.92 ± 0.053
105 | GUUGCC | 1.9665 ± 0.0019 | 1.9 ± 0.033
106 | GUUGCG | 1.87 ± 0.041 | 1.58 ± 0.072
107 | GUUGCU | 1.97 ± 0.069 | 1.862 ± 0.0076
